The labels stand for the following.
B1: NRC3_wobSeed77_DR3_G19C_o1 (dsDNA)
DNA 1: GCACTTACGGGTCAACGACGTTATAGCACGCGTATAGCGATTGACAGCGTAGAATGAAGG
DNA 2: CCTTCATTCTACGCTGTCAATCGCTATACGCGTGCTATAACGTCGTTGACCCGTAAGTGC
B2: NRC3_wobSeed10_DR0_G6A_o1 (dsDNA)
DNA 1: GCATCAAAAGGTCGAGGTGAGTATAGAGAAAGGGAAGCGATTGACAGCGTAGAATGAAGG
DNA 2: CCTTCATTCTACGCTGTCAATCGCTTCCCTTTCTCTATACTCACCTCGACCTTTTGATGC
B3: NRC3_wobSeed36_DR1_T8G_o1 (dsDNA)
DNA 1: GCCCGACGGGGGCAAAGGTTACCATACTCAGTACGAGCGATTGACAGCGTAGAATGAAGG
DNA 2: CCTTCATTCTACGCTGTCAATCGCTCGTACTGAGTATGGTAACCTTTGCCCCCGTCGGGC
B4: NRC3_random_hg19_37_o1 (dsDNA)
DNA 1: GCTTTGCCAGGTGCGGTGGCTCAATGCCTGTAATCCGCGATTGACAGCGTAGAATGAAGG
DNA 2: CCTTCATTCTACGCTGTCAATCGCGGATTACAGGCATTGAGCCACCGCACCTGGCAAAGC
B5: NRC3_random_hg19_205_o1 (dsDNA)
DNA 1: GCGAATCATCATGAGCTCAGAATGATCCTAGGCAGAGCGATTGACAGCGTAGAATGAAGG
DNA 2: CCTTCATTCTACGCTGTCAATCGCTCTGCCTAGGATCATTCTGAGCTCATGATGATTCGC
B6: NRC3_wobSeed61_DR2_C7A_o1 (dsDNA)
DNA 1: GCCGTCAAAGGTCAGCAGGTCAGTGAAAGCGACGTGGCGATTGACAGCGTAGAATGAAGG
DNA 2: CCTTCATTCTACGCTGTCAATCGCCACGTCGCTTTCACTGACCTGCTGACCTTTGACGGC
B7: NRC3_wobSeed42_DR1_G22A_o1 (dsDNA)
DNA 1: GCTATACAGGGTCAAAGGCCAAAGTACGAATGTCGAGCGATTGACAGCGTAGAATGAAGG
DNA 2: CCTTCATTCTACGCTGTCAATCGCTCGACATTCGTACTTTGGCCTTTGACCCTGTATAGC
B8: NRC3_random_hg19_457_o1 (dsDNA)
DNA 1: GCAGCTGCATCCATGTTGCTGCAAAGGACATGACTTGCGATTGACAGCGTAGAATGAAGG
DNA 2: CCTTCATTCTACGCTGTCAATCGCAAGTCATGTCCTTTGCAGCAACATGGATGCAGCTGC
B9: NRC3_random_hg19_281_o1 (dsDNA)
DNA 1: GCTTGTTGCTTCTGTTCTACGCCAGTGACTTGGAAAGCGATTGACAGCGTAGAATGAAGG
DNA 2: CCTTCATTCTACGCTGTCAATCGCTTTCCAAGTCACTGGCGTAGAACAGAAGCAACAAGC
B10: NRC3_random_hg19_127_o1 (dsDNA)
DNA 1: GCATGAGGTACTGATACATGCTACAATGTGTATGTAGCGATTGACAGCGTAGAATGAAGG
DNA 2: CCTTCATTCTACGCTGTCAATCGCTACATACACATTGTAGCATGTATCAGTACCTCATGC

Sequence of LXRb:RXRa (P55055 whole entry, chain 1 of 2): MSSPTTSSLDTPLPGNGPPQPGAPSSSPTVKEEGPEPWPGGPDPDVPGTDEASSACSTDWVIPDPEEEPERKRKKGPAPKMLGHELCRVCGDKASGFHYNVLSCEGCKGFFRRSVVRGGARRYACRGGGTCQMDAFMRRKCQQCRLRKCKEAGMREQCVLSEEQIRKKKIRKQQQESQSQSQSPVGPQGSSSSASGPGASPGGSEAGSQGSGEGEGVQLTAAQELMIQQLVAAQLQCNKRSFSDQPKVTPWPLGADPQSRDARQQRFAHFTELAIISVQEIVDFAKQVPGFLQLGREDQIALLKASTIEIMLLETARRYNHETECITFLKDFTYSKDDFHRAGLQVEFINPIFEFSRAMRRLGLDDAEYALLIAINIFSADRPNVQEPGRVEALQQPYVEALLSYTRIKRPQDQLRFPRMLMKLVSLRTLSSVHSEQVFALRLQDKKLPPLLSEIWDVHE
Sequence of LXRb:RXRa (P19793 whole entry, chain 2 of 2): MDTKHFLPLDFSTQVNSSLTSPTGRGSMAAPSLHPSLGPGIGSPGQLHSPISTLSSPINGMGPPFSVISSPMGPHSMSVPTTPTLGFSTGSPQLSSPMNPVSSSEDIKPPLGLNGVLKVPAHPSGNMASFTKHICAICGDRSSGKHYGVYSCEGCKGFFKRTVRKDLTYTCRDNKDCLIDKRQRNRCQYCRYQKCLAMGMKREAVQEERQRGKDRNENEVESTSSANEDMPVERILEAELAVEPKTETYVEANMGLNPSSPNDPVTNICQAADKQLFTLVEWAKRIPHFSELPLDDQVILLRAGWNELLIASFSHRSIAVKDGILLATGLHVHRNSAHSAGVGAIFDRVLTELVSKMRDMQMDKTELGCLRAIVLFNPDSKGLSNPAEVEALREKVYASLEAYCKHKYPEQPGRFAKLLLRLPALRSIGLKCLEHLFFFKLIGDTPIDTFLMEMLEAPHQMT
Sequence of RARa:RXRa (P10276 whole entry, chain 1 of 2): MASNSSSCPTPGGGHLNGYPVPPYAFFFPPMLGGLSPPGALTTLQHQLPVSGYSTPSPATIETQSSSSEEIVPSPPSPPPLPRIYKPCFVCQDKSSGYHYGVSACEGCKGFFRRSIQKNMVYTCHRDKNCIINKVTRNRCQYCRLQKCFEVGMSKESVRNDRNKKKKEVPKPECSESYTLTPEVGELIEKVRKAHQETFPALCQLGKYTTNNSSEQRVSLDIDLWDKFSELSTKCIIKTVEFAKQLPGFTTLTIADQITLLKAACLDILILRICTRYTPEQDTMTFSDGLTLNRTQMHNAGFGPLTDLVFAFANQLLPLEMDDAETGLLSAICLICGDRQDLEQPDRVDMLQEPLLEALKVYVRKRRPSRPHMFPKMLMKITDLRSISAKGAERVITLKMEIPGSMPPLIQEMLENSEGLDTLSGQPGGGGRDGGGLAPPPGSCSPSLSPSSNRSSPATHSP
Sequence of RARa:RXRa (P19793 whole entry, chain 2 of 2): as the sequence (P19793 whole entry, chain 2 of 2) above
Sequence of RARg:RXRa (P13631 whole entry, chain 1 of 2): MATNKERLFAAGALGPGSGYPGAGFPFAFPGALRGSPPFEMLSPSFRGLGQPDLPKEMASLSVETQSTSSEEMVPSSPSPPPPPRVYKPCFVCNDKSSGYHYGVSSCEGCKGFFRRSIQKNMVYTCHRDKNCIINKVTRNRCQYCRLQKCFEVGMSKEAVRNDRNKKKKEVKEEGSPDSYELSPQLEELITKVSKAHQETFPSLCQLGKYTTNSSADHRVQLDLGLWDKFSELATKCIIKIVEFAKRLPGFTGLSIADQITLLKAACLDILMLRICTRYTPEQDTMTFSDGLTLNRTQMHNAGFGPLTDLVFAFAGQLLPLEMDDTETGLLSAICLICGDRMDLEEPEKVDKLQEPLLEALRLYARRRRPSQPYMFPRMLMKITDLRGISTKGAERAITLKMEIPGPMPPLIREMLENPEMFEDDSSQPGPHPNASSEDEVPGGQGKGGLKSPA
Sequence of RARg:RXRa (P19793 whole entry, chain 2 of 2): as the sequence (P19793 whole entry, chain 2 of 2) above
Sequence of RARb:RXRa (P10826 whole entry, chain 1 of 2): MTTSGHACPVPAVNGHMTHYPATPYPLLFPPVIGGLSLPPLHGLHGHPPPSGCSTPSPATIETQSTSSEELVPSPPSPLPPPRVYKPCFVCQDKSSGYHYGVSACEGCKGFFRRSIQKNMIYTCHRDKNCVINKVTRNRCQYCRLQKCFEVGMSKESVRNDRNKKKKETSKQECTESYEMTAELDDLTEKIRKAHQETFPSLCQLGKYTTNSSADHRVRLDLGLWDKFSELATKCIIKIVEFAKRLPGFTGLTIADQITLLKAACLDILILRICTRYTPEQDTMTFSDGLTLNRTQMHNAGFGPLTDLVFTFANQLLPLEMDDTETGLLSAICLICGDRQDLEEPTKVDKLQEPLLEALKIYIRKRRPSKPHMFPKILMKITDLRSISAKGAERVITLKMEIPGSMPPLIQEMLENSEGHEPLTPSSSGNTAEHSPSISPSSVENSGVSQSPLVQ
Sequence of RARb:RXRa (P19793 whole entry, chain 2 of 2): as the sequence (P19793 whole entry, chain 2 of 2) above

In the first data set the target is LXRb:RXRa (Homo sapiens, UniProt P55055;P19793 full;full). The experiment in a line: no ligand; PBM; 270 nM : 90 nM RXRa; PBS pH 7.4, 2% milk, 0.02% Triton X-100, 1 mM DTT, BSA, 0.4 mg/ml salmon testes DNA. Conditions: tags: His kept;His cleaved; copies: 1;1; label: surface-attached array probe. In outline:
(§1)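 Each nuclear receptor dimer, without ligand, was incubated for 1 h on custom Agilent 4×180K protein-binding microarrays. Binding was detected with antibodies against each partner (one per run), and scanned fluorescence was regression-normalized. The binding z-scores are referenced to random human genomic background probes.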
As to B1, the binding signal was 3.79 PBM z-score against 500 random probes.

In the case of B2, the binding signal is 3.24 PBM z-score against 500 random probes.

On to B3, for which the binding signal is 5.85 PBM z-score against 500 random probes.

As for B4, the binding signal was -1.03 PBM z-score against 500 random probes.

Consider B5, for which the binding signal was -0.63 PBM z-score against 500 random probes.

In the next data set the target is FXR:RXRa (Homo sapiens, UniProt Q96RI1;P19793 full;full). The data set is described as above. Conditions: tags: His kept;His cleaved; copies: 1;1; label: surface-attached array probe. Put shortly: as §1
Sequence of FXR:RXRa (Q96RI1 whole entry, chain 1 of 2): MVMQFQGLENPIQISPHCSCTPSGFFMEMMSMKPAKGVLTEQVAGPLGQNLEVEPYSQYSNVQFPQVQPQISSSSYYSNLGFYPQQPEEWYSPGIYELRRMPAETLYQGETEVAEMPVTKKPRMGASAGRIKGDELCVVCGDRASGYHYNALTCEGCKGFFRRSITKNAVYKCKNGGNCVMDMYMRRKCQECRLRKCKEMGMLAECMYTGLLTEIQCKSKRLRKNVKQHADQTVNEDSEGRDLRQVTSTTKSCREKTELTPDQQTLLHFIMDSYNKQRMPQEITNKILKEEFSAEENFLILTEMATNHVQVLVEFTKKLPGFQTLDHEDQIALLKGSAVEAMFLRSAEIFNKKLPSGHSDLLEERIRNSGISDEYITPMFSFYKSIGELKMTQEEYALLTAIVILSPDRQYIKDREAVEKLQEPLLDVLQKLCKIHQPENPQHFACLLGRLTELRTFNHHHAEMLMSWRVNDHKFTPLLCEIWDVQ
Sequence of FXR:RXRa (P19793 whole entry, chain 2 of 2): as the sequence (P19793 whole entry, chain 2 of 2) above
B6: the binding signal was 8.26 PBM z-score against 500 random probes.

As for B7, the binding signal is 7.75 PBM z-score against 500 random probes.

For B8, the binding signal is -1.02 PBM z-score against 500 random probes.

The target of a further data set is VDR:RXRa (Homo sapiens, UniProt P11473;P19793 full;full). The description is as above. Particulars: tags: His kept;His cleaved; copies: 1;1; label: surface-attached array probe. Put shortly: as §1
Sequence of VDR:RXRa (P11473 whole entry, chain 1 of 2): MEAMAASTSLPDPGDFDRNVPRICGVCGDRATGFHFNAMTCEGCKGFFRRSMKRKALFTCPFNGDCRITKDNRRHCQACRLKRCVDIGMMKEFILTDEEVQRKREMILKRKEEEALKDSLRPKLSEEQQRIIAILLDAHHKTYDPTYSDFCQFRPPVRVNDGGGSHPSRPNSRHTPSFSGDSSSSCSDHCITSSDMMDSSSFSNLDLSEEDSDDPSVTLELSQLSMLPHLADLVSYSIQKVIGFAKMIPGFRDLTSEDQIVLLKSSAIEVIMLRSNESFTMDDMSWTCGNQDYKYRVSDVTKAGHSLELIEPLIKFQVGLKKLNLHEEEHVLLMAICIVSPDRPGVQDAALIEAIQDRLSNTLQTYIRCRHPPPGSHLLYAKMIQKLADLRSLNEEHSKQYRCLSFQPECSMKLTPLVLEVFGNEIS
Sequence of VDR:RXRa (P19793 whole entry, chain 2 of 2): as the sequence (P19793 whole entry, chain 2 of 2) above
Take B9: the binding signal is -0.16 PBM z-score against 500 random probes.

As to B10, the binding signal is -0.33 PBM z-score against 500 random probes.

Turning to B8, the binding signal was -0.67 PBM z-score against 500 random probes.

The target in a further data set is PPARa:RXRa (Homo sapiens, UniProt Q07869;P19793 full;full). The data set is described as above. Conditions: tags: GST kept;His cleaved; copies: 1;1; label: surface-attached array probe. Put shortly: as §1
Sequence of PPARa:RXRa (Q07869 whole entry, chain 1 of 2): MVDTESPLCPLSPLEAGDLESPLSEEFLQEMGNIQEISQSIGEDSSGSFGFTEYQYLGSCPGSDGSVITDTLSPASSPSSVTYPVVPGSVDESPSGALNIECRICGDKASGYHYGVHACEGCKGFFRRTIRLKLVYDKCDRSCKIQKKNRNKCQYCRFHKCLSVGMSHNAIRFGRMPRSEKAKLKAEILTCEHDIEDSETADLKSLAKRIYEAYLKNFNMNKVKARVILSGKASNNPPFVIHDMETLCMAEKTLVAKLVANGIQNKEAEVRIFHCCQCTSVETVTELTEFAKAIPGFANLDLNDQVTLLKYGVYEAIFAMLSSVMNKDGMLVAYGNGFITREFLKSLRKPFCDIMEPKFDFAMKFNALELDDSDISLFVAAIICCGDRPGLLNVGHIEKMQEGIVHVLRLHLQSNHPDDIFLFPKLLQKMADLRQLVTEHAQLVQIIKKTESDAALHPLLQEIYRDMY
Sequence of PPARa:RXRa (P19793 whole entry, chain 2 of 2): as the sequence (P19793 whole entry, chain 2 of 2) above
Take B9: the binding signal is -0.08 PBM z-score against 500 random probes.

As to B6, the binding signal is 6.49 PBM z-score against 500 random probes.

For B7, the binding signal is 6.61 PBM z-score against 500 random probes.

A further data set concerns the target RARb:RXRa (Homo sapiens, UniProt P10826;P19793 full;full). Described as above. Particulars: tags: His kept;His cleaved; copies: 1;1; label: surface-attached array probe. Put shortly:
as §1
With B6, the binding signal was 6.16 PBM z-score against 500 random probes.

The next data set has as its target RARg:RXRa (Homo sapiens, UniProt P13631;P19793 full;full). The description is as above. Particulars: tags: His kept;His cleaved; copies: 1;1; label: surface-attached array probe. Put shortly:
as §1
In the case of B6, the binding signal is 8.13 PBM z-score against 500 random probes.

Take B8: the binding signal is -0.13 PBM z-score against 500 random probes.

The next data set addresses RARa:RXRa (Homo sapiens, UniProt P10276;P19793 full;full). The description is as above. Particulars: tags: His kept;His cleaved; copies: 1;1; label: surface-attached array probe. In outline:
as §1
B1: the binding signal is 4.03 PBM z-score against 500 random probes.

In the case of B9, the binding signal is -0.05 PBM z-score against 500 random probes.

B2: the binding signal is 3.83 PBM z-score against 500 random probes.

For the molecule B6, the binding signal is 7.38 PBM z-score against 500 random probes.

As to B7, the binding signal was 7.1 PBM z-score against 500 random probes.

For B3, the binding signal was 7.46 PBM z-score against 500 random probes.

Take B4: the binding signal is -0.74 PBM z-score against 500 random probes.

On to B10, for which the binding signal was -0.55 PBM z-score against 500 random probes.

Take B8: the binding signal is -0.52 PBM z-score against 500 random probes.

Consider B5, for which the binding signal is -0.66 PBM z-score against 500 random probes.

The target of the next data set is RXRa (Homo sapiens, UniProt P19793). Description: no ligand; PBM; 180 nM; PBS pH 7.4, 2% milk, 0.02% Triton X-100, 1 mM DTT, BSA, 0.4 mg/ml salmon testes DNA. Particulars: tags: His cleaved; chain copies: 2; label: surface-attached array probe.
Sequence of RXRa (P19793 whole entry): as the sequence (P19793 whole entry, chain 2 of 2) above
With B6, the binding signal was 7.98 PBM z-score against 500 random probes.

Regarding B7, the binding signal is 8.11 PBM z-score against 500 random probes.

Take B3: the binding signal is 7.82 PBM z-score against 500 random probes.

As to B8, the binding signal was -0.65 PBM z-score against 500 random probes.

For the origin of these results see PMC6555819, “Comprehensive study of nuclear receptor DNA binding provides a revised framework for understanding receptor specificity”.
